Patent US20220387578A1 (VANDERBILT UNIVERSITY, published 2022)

T1: eHead_H1_v3.1_mC
T1 chain: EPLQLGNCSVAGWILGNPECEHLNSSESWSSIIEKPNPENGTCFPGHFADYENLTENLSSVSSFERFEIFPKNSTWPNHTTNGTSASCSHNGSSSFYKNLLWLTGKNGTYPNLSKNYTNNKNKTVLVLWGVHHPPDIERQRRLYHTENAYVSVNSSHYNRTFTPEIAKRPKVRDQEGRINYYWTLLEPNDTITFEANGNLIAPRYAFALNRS

B1: FluA20_UCA (as used in the SPR experiments of Example 4) (antibody, V domains shown)
VH: QVQLQESGPGLVKPSETLSLTCTVSGGSVSSGSYYWSWIRQPPGKGLEWIGYIYYSGSTNYNPSLKSRVTISVDTSKNQFSLKLSSVTAADTAVYYCARGTEDLGYCSGGSCPNHWGQGTLVTVSS
VL: not shown
B2: FluA20 (as used in the SPR experiments of Example 4) (antibody, V domains shown)
VH: QVQLQESGPGLVKPSETLSLTCSVSGVSVTSDIYYWTWIRQPPGKGLEWIGYIFYNGDTNYNPSLKSRVTMSIDTSKNEFSLRLTSVTAADTAVYFCARGTEDLGYCSSGSCPNHWGQGTLVTVSS
VL: DIQMTQSPSSLSASIGDRVTITCRPSQNIRSFLNWFQHKPGKAPKLLIYAASNLQSGVPSRFSGSGSGTEFTLTIRSLQPEDFATYYCQQSYNTPPTFGQGTKVEIK

Molecular target: T1, eHead_H1_v3.1_mC
Assay: SPR

Row | Binder | Kd
1 | B1 | 220 nM
2 | B2 | 2.8 nM
